First the molecules themselves.
B1: Ankyrin-3, residues 4094 to 4171; numbered along this chain, Q12955 (parent)
chain: MAIVADHLGLSWTELARELNFSVDEINQIRVENPNSLISQSFMLLKKWVTRDGKNATTDALTSVLTKINRIDIVTLLE

± gives the uncertainty stated by the source.

Variants of B1 are the subject of the series. Put plainly: abundance fitness (aPCA) (normalised: wild type 0, dead -1); higher = more abundant; growth selection in yeast, the domain comes from the species named. The note with it: Homo sapiens.
For MWIVADHLGLSWTELARELNFSVDEINQIRVENPNSLISQSFMLLKKWVTRDGKNATTDALTSVLTKINRIDIVTLLE, the abundance fitness was 0.169 ± 0.077.

Take MDIVADHLGLSWTELARELNFSVDEINQIRVENPNSLISQSFMLLKKWVTRDGKNATTDALTSVLTKINRIDIVTLLE: the abundance fitness worked out at 0.173 ± 0.074.

Consider MGIVADHLGLSWTELARELNFSVDEINQIRVENPNSLISQSFMLLKKWVTRDGKNATTDALTSVLTKINRIDIVTLLE, for which the abundance fitness worked out at 0.14 ± 0.051. For the variant MTIVADHLGLSWTELARELNFSVDEINQIRVENPNSLISQSFMLLKKWVTRDGKNATTDALTSVLTKINRIDIVTLLE, the abundance fitness was 0.077 ± 0.06.

MNIVADHLGLSWTELARELNFSVDEINQIRVENPNSLISQSFMLLKKWVTRDGKNATTDALTSVLTKINRIDIVTLLE: the abundance fitness amounted to 0.08 ± 0.16. As for MYIVADHLGLSWTELARELNFSVDEINQIRVENPNSLISQSFMLLKKWVTRDGKNATTDALTSVLTKINRIDIVTLLE, the abundance fitness was -0.037 ± 0.21. As for MRIVADHLGLSWTELARELNFSVDEINQIRVENPNSLISQSFMLLKKWVTRDGKNATTDALTSVLTKINRIDIVTLLE, the abundance fitness was determined as 0.149 ± 0.044. Regarding MEIVADHLGLSWTELARELNFSVDEINQIRVENPNSLISQSFMLLKKWVTRDGKNATTDALTSVLTKINRIDIVTLLE, the abundance fitness was determined as 0.224 ± 0.084. MMIVADHLGLSWTELARELNFSVDEINQIRVENPNSLISQSFMLLKKWVTRDGKNATTDALTSVLTKINRIDIVTLLE: the abundance fitness is -0.175 ± 0.1.

In the case of MFIVADHLGLSWTELARELNFSVDEINQIRVENPNSLISQSFMLLKKWVTRDGKNATTDALTSVLTKINRIDIVTLLE, the abundance fitness is -0.035 ± 0.11.

MAGVADHLGLSWTELARELNFSVDEINQIRVENPNSLISQSFMLLKKWVTRDGKNATTDALTSVLTKINRIDIVTLLE: the abundance fitness was -0.506 ± 0.06. For the variant MAPVADHLGLSWTELARELNFSVDEINQIRVENPNSLISQSFMLLKKWVTRDGKNATTDALTSVLTKINRIDIVTLLE, the abundance fitness is -0.46 ± 0.087.

In the case of MAEVADHLGLSWTELARELNFSVDEINQIRVENPNSLISQSFMLLKKWVTRDGKNATTDALTSVLTKINRIDIVTLLE, the abundance fitness was -0.342 ± 0.083. With MADVADHLGLSWTELARELNFSVDEINQIRVENPNSLISQSFMLLKKWVTRDGKNATTDALTSVLTKINRIDIVTLLE the figure was -0.489 ± 0.16; with MAMVADHLGLSWTELARELNFSVDEINQIRVENPNSLISQSFMLLKKWVTRDGKNATTDALTSVLTKINRIDIVTLLE, -0.081 ± 0.096.

In the case of MACVADHLGLSWTELARELNFSVDEINQIRVENPNSLISQSFMLLKKWVTRDGKNATTDALTSVLTKINRIDIVTLLE, the abundance fitness was -0.225 ± 0.12. Turning to MALVADHLGLSWTELARELNFSVDEINQIRVENPNSLISQSFMLLKKWVTRDGKNATTDALTSVLTKINRIDIVTLLE, the abundance fitness is -0.027 ± 0.051.

For the variant MAHVADHLGLSWTELARELNFSVDEINQIRVENPNSLISQSFMLLKKWVTRDGKNATTDALTSVLTKINRIDIVTLLE, the abundance fitness was -0.523 ± 0.17. Turning to MAQVADHLGLSWTELARELNFSVDEINQIRVENPNSLISQSFMLLKKWVTRDGKNATTDALTSVLTKINRIDIVTLLE, the abundance fitness was -0.33 ± 0.076. Take MAYVADHLGLSWTELARELNFSVDEINQIRVENPNSLISQSFMLLKKWVTRDGKNATTDALTSVLTKINRIDIVTLLE: the abundance fitness was -0.486 ± 0.16. On to MAVVADHLGLSWTELARELNFSVDEINQIRVENPNSLISQSFMLLKKWVTRDGKNATTDALTSVLTKINRIDIVTLLE, for which the abundance fitness was -0.05 ± 0.053. As for MARVADHLGLSWTELARELNFSVDEINQIRVENPNSLISQSFMLLKKWVTRDGKNATTDALTSVLTKINRIDIVTLLE, the figure is -0.321 ± 0.05; as for MAKVADHLGLSWTELARELNFSVDEINQIRVENPNSLISQSFMLLKKWVTRDGKNATTDALTSVLTKINRIDIVTLLE, -0.27 ± 0.11; as for MASVADHLGLSWTELARELNFSVDEINQIRVENPNSLISQSFMLLKKWVTRDGKNATTDALTSVLTKINRIDIVTLLE, -0.411 ± 0.062. As to MAIVPDHLGLSWTELARELNFSVDEINQIRVENPNSLISQSFMLLKKWVTRDGKNATTDALTSVLTKINRIDIVTLLE, the abundance fitness is -0.899 ± 0.26. As for MAIVKDHLGLSWTELARELNFSVDEINQIRVENPNSLISQSFMLLKKWVTRDGKNATTDALTSVLTKINRIDIVTLLE, the abundance fitness is -0.648 ± 0.18.

MAIVWDHLGLSWTELARELNFSVDEINQIRVENPNSLISQSFMLLKKWVTRDGKNATTDALTSVLTKINRIDIVTLLE: the abundance fitness is -0.765 ± 0.13. Consider MAIVIDHLGLSWTELARELNFSVDEINQIRVENPNSLISQSFMLLKKWVTRDGKNATTDALTSVLTKINRIDIVTLLE, for which the abundance fitness is -0.74 ± 0.31. With MAIVHDHLGLSWTELARELNFSVDEINQIRVENPNSLISQSFMLLKKWVTRDGKNATTDALTSVLTKINRIDIVTLLE, the abundance fitness was -0.716 ± 0.43. As for MAIVLDHLGLSWTELARELNFSVDEINQIRVENPNSLISQSFMLLKKWVTRDGKNATTDALTSVLTKINRIDIVTLLE, the figure is -0.921 ± 0.19; as for MAIVYDHLGLSWTELARELNFSVDEINQIRVENPNSLISQSFMLLKKWVTRDGKNATTDALTSVLTKINRIDIVTLLE, -0.745 ± 0.34. With MAIVRDHLGLSWTELARELNFSVDEINQIRVENPNSLISQSFMLLKKWVTRDGKNATTDALTSVLTKINRIDIVTLLE, the abundance fitness is -0.498 ± 0.076.

Turning to MAIVTDHLGLSWTELARELNFSVDEINQIRVENPNSLISQSFMLLKKWVTRDGKNATTDALTSVLTKINRIDIVTLLE, the abundance fitness is -0.774 ± 0.18.

Take MAIVVDHLGLSWTELARELNFSVDEINQIRVENPNSLISQSFMLLKKWVTRDGKNATTDALTSVLTKINRIDIVTLLE: the abundance fitness was -0.484 ± 0.068. Take MAIVCDHLGLSWTELARELNFSVDEINQIRVENPNSLISQSFMLLKKWVTRDGKNATTDALTSVLTKINRIDIVTLLE: the abundance fitness is -0.359 ± 0.12.

Source of the values: the Human Domainome abundance scans (Beltran et al. 2025).
